# Assay: soluble on expression in E. coli; label from the status in PepcDB or PDB records
row,Sequence,soluble on expression in E. coli
1,MQLKRKNSVFIDPRIQEVAGPCEPSDNGNNEEEDKIISIRATASSASITKESVPEAPPTHFIPVVVTVEPDAWEKFRDIIQVNRNIVIVKVGRWLMSSFMPGDQISLVNGTAIWNSDDLENQVRGPKKETKTEVTVIRVWNLKCLTDIQLDKLLVPPEEQLHYFSVKVYSSKGTIGLKLCLDKKRVLVELIRAKTPVNSALLVGDQILGINDELLTAKSKRALRKQVAEVMKKSIKKQGFAEIIACRQVIARSSPAPSLEAELSEKFANYAVGVEKGTRIEKKDSSETNSLPLHSDALEIALRELACLKQWIVESSTEVPPCDKGPTLMIDPPTAPGSAEGCPPPLVKAKSTTNAIERSVYFPLSTTAAVAILVSTPKKRSIFRQQDRNSAINFAEQPDHEKITSDIPEEDDLKKCEPMSGIAAYIKKKFN,not soluble
2,MCMNTQSPPSPHDPHGAAALPFRLWTAEERRASLDTALREWRDGEDVWVYGYGSLIWRPDFDFVERRLATLHGHHRALLWSRVNRGTPECPGLVFGLDRGGSCRGVVYRLAGRQVPDYFPALWDREMSTGAYLPRWLRCATEHGPVNALVFIMNRANPAYIRALPEPELLAIVRRASGRYGPCTEYVVQTAQALRQAGIRDARLEQIARQLEAEVHPLGVLEHHHHHH,soluble
3,SREGVLYDGDSLAYIIAKHRQQLGELQGGVAGTLMTNLAVEQAFERLGIPFARANVGDRYVSELLQQNDWYLGAENSGHIICRDKHTTGDGIISALQVLYALRDTGLTLADFMRDVPFF,not soluble
4,MTATPEVQKSIEEVYTKLQGASDCSSLLKKHLTKDVVAKNKSKKTRLGATLLDVIQSGGENLDSGVGIYAPDAESYTLFADLFNPVIEEYHNGFKATDTQPAMDLGEKNVGELADLDPEGKFIVSTRIRCGRSLQGYPFNPCLSETNYKMMETRMKEIFNSITDPELKGTYYPLTGMDEETKKKLIADHFLFKEGDRFLKAANANRYWPNGRGIFHNEKKTFLVWVNEEDHLRIISMQNGGNVGEVLARLIKGLNLVAAKAPFARHPRLGWLTFCPTNLGTTVRASVHIKLPKISAKDDFKKICSDMKLQIRGIHGEHSESKEGIYDISNKQRLGLTEYQAVRQMYDGLKKLIELEKAAA,not soluble
5,MSLYTYIDLFAGPGGLCTGFKNAGFKPLIAVEMSDNTVKTYARNHEAEVYSLQELLENKGRLEEILNINTDNTCLIHGDIRLVDNDIIVEILQKKFKTNSVDVVAGGPPCESFSLAGKRIDGDERDDLFKNMLRIASISNSKFIFFENVPGLLTKKSNNIKVFDVIVEEFDNYGYNLASTDKNIIKCLAADYGVPQNRERVFLIGINKMYGENPYIYPEKTHGEGRKFEYISVSDALRYLPELNSGEGADIQQITYNFEEDFRKGKISEAVYNYLKFIAGKEGYIPPHIKESIDDGLIEIHKAVKHREKMINRMSYIKQGEGMKKAAERLINEGKEDIVRAYFPNKLYAARNRRLKANEPSFTVTSHCLDEMVHPYNNRGLTPREAARLQSFPDWYVFEGEYVKFHSDPQQDKYEQCGDAIPVLLVKALAEQLKIALNIVSERTSINEGHHHHHH,not soluble
6,ELKPTAPPIFTGRPFVVAWDVPTQDCGPRLKVPLDLNAFDVQASPNEGFVNQNITIFYRDRLGLYPRFDSAGRSVHGGVPQNVSLWAHRKMLQKRVEHYIRTQESAGLAVIDWEDWRPVWVRNWQDKDVYRRLSRQLVASRHPDWPPDRIVKQAQYEFEFAAQQFMLETLRYVKAVRPRHLWGFYLFPDCYNHDYVQNWESYTGRCPDVEVARNDQLAWLWAESTALFPSVYLDETLASSRHGRNFVSFRVQEALRVARTHHANHALPVYVFTRPTYSRRLTGLSEMDLISTIGESAALGAAGVILWGDAGYTTSTETCQYLKDYLTRLLVPYVVNVSWATQYCSRAQCHGHGRCVRRNPSASTFLHLSTNSFRLVPGHAPGEPQLRPVGELSWADIDHLQTHFRCQCYLGWSGEQCQWDHRQAAGG,soluble
7,MSLKRVMLKISGEALAGTNGYGIDFEVANRIAKEIKEIVDLGIEVGAVVGGGNIWRGRNGKGMDRTTADYMGMLATCINALALQDSLENMDVDTRVQTAIEMKQVAEPFIRRRAMRHLEKGRVVIFAGGTGNPYFSTDTTAALRAAEIEADVILLAKKVDGVYDKDPHKYDDAIKFDNLTYMEVLEKNLQVMDSTATSLCMDNNIPIIVFGLDVSGNIRKAVLGEKIGTIVSKEGHHHHHH,soluble
8,MGSDKIHHHHHHMEHFLYRLNFSTALHIGKDAGGPSLDDGQMIIHADTLFAALCCEAVRGGRITQLVKYFADGILSISDALPYAGDEIFLPRPVLFTENRKRAGDSALAKALKNKDYIPLSFFGDYLKSMQQLDFNLESLKSESDFGYLTTLTRVAIKGNSPPLPYHVAAWRFADGCGLYIIVRSEQEEARTMFASLLAELGLSGIGGKQSSGWGKFEVKPGPVPDELLRLLEDKQAEYQMLMGTALPVDNELDTVLLNGWYKLLRRGGFIRSESYAARQMKKKTIYMLASGSCLRSRFKGAMLDLSDNGAHPVWRCGNTLFVGVTI,not soluble
9,MSLERLIPIIAPQVPEKPLLNDSLGSGIGCSATLGRSTKFEDNFMCLKQDNVLFVGVFDGHAGHESALISAECFTKILPSFDFTNAIHQKNPEKDEENIQKFDFPKVENHLSPRRNHFRNVKTQENQIFGSQKIETKNIKNTQKIELKNSEKIELENSKGSENLNTKLIKTYLRMAFAQVNDELRNRKVKDGTTAVVVCLFENRKGAVAHVGDSLALLVGQTTSKLLTKMHRPSDKDEFYRMRKRNKSVSSDWKVDGKLSVSRSLGDFWCCGGMFDDADVSFFDLNDDALSIVLGCDGLWDYVDEGTVCNVVRELRDPVKAAKLLQDIAFASGSHDSISVIVVNVEPTEGHHHHHH,soluble
10,HMSFSHVCQVGDPVLRGVAAPVERAQLGGPELQRLTQRLVQVMRRRRCVGLSAPQLGVPRQVLALELPEALCRECPPRQRALRQMEPFPLRVFVNPSLRVLDSRLVTFPEGCESVAGFLACVPRFQAVQISGLDPNGEQVVWQASGWAARIIQHEMDHLQGCLFIDKMDSRTFTNVYWMKVND,soluble
11,MGSDKIHHHHHHMINHHPKFELIQAFVNGDLPASLSAGIAIHADMCPVCQQTIAQFTEQVAENSFEEEYLDRFIIDDNEALEAIATIDFDHMIDNIVESSDIAVVVPKVEKTVSFNDTTYTLPAALNSMEMGKHAQIGKLTRARIQLNENEIHSSLLHIQPGGGVPEHTHKGFELTVLLAGSFHDESGEYVKGDFIMLDSSHQHHPISSNGCLCYTVANDALHFTHGINKLLNPIGSFIY,not soluble
12,AIATDCEWFDMTWGSSASSGYCSQSDSDEHELELFYTARTSLRKSRKCRDKDEQSEVDWRKQDLSVTEIQQKVKEYNAQVNSNLFMVLNRDGSYTGFIKVQFKLARPVSLPPPRSVSSSSISSSCLGWDGGCQERTSFYLPRDTVKHLHISSSTRAREVIQALLNKFTVVDNPAKYSLYERSQRDNQVYLRKLADDECPLFLRLCAGPNEKVLSLVLKENETGEVNWDAFSFPELQNFLRILQREEEDHVRQIIRRYTLARDKMKEAMKNFSTPG,soluble
13,MSLDKVTLLLNWYVYGEHAPFFYGKAKGLYAAEGIDLDIQEGRGSAVTIQAVAAGTVQFGYADVPTMIRAAAKGAPVVAVGVALQKSPMSVMGFSDKNIRKPEDIKGKIVATTPGDSMSQIWPLFLKQAGLRASDFQVVSGDAQTKLNAVANGRADLLLGYVMDQSMKLKDATGKDVRPIMFADYGIHMVSSGIITNKDLLKSNPDLVRRFMKATTAAFIGAEKDPGAAVDALLADLPKAGKRETLLEGFALTTPLYHTDETKGRPPFQVTDADMTSTVDLLIEYGGLEASAKDNTKSFYTRDYLPAAGNEGHHHHHH,soluble
14,MSFIAYPCAVPTQRQVPMSPPTTPRILMKLCPIMEIPIIGGPRQNGTYNVFIFDLKIRKFIPHRCSSCAVKILEDHLSPMYASGSVIFMRNEVTQEVEQYVYSFETGGFQQVDYPELVYSAEKFTESSFIVMIENSDGKKVLIERGGNEAVRKLEYRLGKCVEMPKVEVQLLAAEEFDDADPWSDNDSLSSEHLDYNETLPAFKTTFCQDFQMYVLYIITSRGHYEKYIYNQSTSQFEILDCEKCPDTTREVDLLPKYAEFCEEIQAYVIHVFNSFTDRMEQYVFDSKIQGFVEVNQPELKYDSSKDQDPTSSIFFVLKGTTVIMRGAQGRLKKEVYCSIKKHFVEVPNSVIKSFDTQFMEKKQKMDKKKKAKKIKKSKKKASKESQELDVLVEKIRLCDDPFSDGPSCSTSPDIPEDAPDDGMSILKQKFVESLTTLYGGSLPPYVQKELEQI,not soluble
15,GNYENINSNPYEAPDLSADGYALGSAMNNLAGCVVSPDVNTAQFTDCLLGGPLGGYFADSNAGFTETISNFNPKDDWSRVFLKSDKIIPTLYSNLTQVKLVSQNTNDPVPYAIAQVIKVAAMHRVTDAFGPIPYSQIGANGEIATPYDSQEVTYNTFFDELNAAIATLNENSNEQLVPTADYIYKGDVKKWIRFANSLKLRLAIRIAYANPVKAQQMAEEAVNPANGGVIESNADNATWNYFETSQNPIYVATRYNQVQTSDHGGVPCLTGGDTHAAADIICYMNGYKDNRREKFFTKSEWAGQDYVGMRRGIVIPELKTTGHKYSGVNIAPTSPLYWMNAAEVAFLRAEGQAVFNFSMGGTAESFYNQGIRLSFEQWGADGVEDYLKDDVNKPTAYTDPAGTNTYQNALSNITIKWNDSADKEEKQERIIVQKWIANWQLGNEAWADFRRTGYPKLIPVKENKSGGVVDSEKGARRMPYPLDEFVSNKANVEYAIANYLHGADNMATDVWWASKK,soluble
16,GMDIMLNTADISAAAILLPVEGAQLSELRQIPAEGGPVLHMLRLDSPQFSQFGEIYFSEVLPRRVKAWKRHSLMTQLFAVPVGCIHVVLYDGREKSPTSGRLAQVTLGRPDNYRLLRIPPQVWYGFAATGDTPALVANCTDIPHRQGESERAPQDAPFIPFSWAGADLSGTPVM,soluble
17,MTQNINQLAVNTIRTLSIDAINAANSGHPGLPMGAAPMAYALWANHLNHNPNHPKWFNRDRFVLSAGHGSSLLYSLLHLAGYDVSIDDLKNFRKLNSKTPGHPEFGHTSGVEATTGPLGQGIANAVGMAMAEAHLAAKFNKDGHSIIDHNTYALVGDGDLMEGVAYEAMSMEGVAYEAMSMAGHMKLGKLIVLYDSNEISLDGELNIAFSEDMQKRVESAHWQYVRVEDGNDVDAITKAIQLAKDNTDQPTLIEIRTVIGYGSPKVAGTNKAHGNPLGLEEATATKQVYGWHYEEDFFVPEEVTAHFNELKQKGIEKERGWNEQFNLYRESNPALADELEKAIIGEVLIEAKDILSFDSEKTISTRVASGEAINHYVKSIPSIFGGSADLSHSTMTDIKGEAVYAVESYAGRNIYFGVREHAMGAAANGLALHGGVKPFVSTFFVFNDYLRPSIRLAALQKLPVTYVFTHDSIAVGEDGPTHEPIEHLAALRAIPGLTVIRPSDANETASAWAYALQQTEGPVVLVLSRQNLPVFHETKANIENLSKGAYVLTQTNENPDVILIATGSEVSLAASAKAKLEEDNVSVRIVAMPSWELFDRQSKEYKESVLPSSVTKRVSLEMGVSLGWERYVGQEGNILSIETFGASGTGAEVMNLFGFTTENVVQITKNVLNS,not soluble
18,MPQFTTARRARHRAEQMFALVADVEKYPQFLPMCEALSIRSRKERDGKTLLIADMTVGYKLIRETFTSQVLLKPDENIIDVKYIDGPFRYLDNRWTFRPTDGGAQCDVEFFIDYEFKSRTLGLLMGTMFDLAFKKFSEAFEKRADQIYGLGELEHHHHHH,soluble
19,MESAGFHYKLDIPAGTPDCAIVLLHGSGRTEDDLISFGRAVFPTGALYAPRGAVAWENGFAFFRRKPDRELDIDDLKHQATRLCHFVAFVFQQTGRRPILVGYSNGAIIAAETICQAHHLSKGAILLRPLSPRKDQSLPNLAGYPVLLLAGASDDRRHPSDAPHLSEQLTSAGADAVLETINTGHGWAEDAADERLSRQWLARLPIA,not soluble
20,MTRLPDIKKEVRFNAPIEKVWEAVSTSEGLAFWFMENDLKAETGHHFHLQSPFGPSPCQVTDVERPIKLSFTWDTDGWSVTFHLKEEENGTIFTIVHSGWKQGDTKVEKAGAESAVVHERMDRGWHDLVNERLRQIVELEHHHHHH,soluble
